The values that follow come from article PMC8222357, “The structure of ORC–Cdc6 on an origin DNA reveals the mechanism of ORC activation by the replication initiator Cdc6” (Nature Communications, 2021).

The labels stand for the following.
B1: Orc4, subunit of S. cerevisiae ORC (natural protein)
chain: MTISEARLSPQVNLLPIKRHSNEEVEETAAILKKRTIDNEKCKDSDPGFGSLQRRLLQQLYGTLPTDEKIIFTYLQDCQQEIDRIIKQSIIQKESHSVILVGPRQSYKTYLLDYELSLLQQSYKEQFITIRLNGFIHSEQTAINGIATQLEQQLQKIHGSEEKIDDTSLETISSGSLTEVFEKILLLLDSTTKTRNEDSGEVDRESITKITVVFIFDEIDTFAGPVRQTLLYNLFDMVEHSRVPVCIFGCTTKLNILEYLEKRVKSRFSQRVIYMPQIQNLDDMVDAVRNLLTVRSEISPWVSQWNETLEKELSDPRSNLNRHIRMNFETFRSLPTLKNSIIPLVATSKNFGSLCTAIKSCSFLDIYNKNQLSNNLTGRLQSLSDLELAILISAARVALRAKDGSFNFNLAYAEYEKMIKAINSRIPTVAPTTNVGTGQSTFSIDNTIKLWLKKDVKNVWENLVQLDFFTEKSAVGLRDNATAAFYASNYQFQGTMIPFDLRSYQMQIILQELRRIIPKSNMYYSWTQL
notes: Orc4, S. cerevisiae, as the Orc4 chain of m1; Stood in the assay as a subunit of the whole ORC; written on its own for the contacts seen in the structure; source: purified as part of ORC, as described previously with minor modifications

What all share (experiment): cryo-EM structure; ORC first bound to 85 bp ARS1 origin dsDNA, then Cdc6 added (about 1 μM ORC:1.25 μM DNA:6.4 μM Cdc6), 5 mM ATPγS, 5 mM DTT, on ice; no cross-linking agent; maps at 3.3 and 3.6 Å
Common to all, as to settings: both partners purified

Test [1] has as its target T1, Orc1, subunit of S. cerevisiae ORC (S. cerevisiae, UniProt P54784 1-914).
T1 construct: Orc1, S. cerevisiae, as the Orc1 chain of m1; Stood in the assay as a subunit of the whole ORC; written on its own for the contacts seen in the structure; source: purified as part of ORC, as described previously with minor modifications
T1 sequence: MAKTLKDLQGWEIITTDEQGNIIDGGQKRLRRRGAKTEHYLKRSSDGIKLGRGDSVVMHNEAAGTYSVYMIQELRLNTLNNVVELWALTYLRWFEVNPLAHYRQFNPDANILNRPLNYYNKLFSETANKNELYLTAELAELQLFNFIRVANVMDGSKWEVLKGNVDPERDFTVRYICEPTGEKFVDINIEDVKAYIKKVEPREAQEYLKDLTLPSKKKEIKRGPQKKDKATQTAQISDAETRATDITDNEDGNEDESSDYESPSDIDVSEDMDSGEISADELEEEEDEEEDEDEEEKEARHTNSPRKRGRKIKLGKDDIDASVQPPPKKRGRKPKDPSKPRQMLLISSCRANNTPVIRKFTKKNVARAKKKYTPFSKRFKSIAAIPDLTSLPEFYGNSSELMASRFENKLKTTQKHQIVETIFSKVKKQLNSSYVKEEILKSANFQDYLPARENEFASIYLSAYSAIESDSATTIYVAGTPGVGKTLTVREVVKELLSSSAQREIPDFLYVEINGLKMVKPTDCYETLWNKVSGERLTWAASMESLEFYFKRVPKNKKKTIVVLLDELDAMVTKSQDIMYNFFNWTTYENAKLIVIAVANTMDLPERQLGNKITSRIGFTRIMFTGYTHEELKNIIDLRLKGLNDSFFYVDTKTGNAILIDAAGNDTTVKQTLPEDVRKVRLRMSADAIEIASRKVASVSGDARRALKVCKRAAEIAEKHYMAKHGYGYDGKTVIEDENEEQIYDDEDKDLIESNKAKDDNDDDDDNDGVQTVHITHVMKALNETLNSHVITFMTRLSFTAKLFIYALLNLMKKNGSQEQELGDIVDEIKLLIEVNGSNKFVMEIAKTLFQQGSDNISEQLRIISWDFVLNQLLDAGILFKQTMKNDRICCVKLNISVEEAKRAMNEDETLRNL

Test [2] concerns the target B1.
Test [3] addresses T2, Orc3, subunit of S. cerevisiae ORC (S. cerevisiae, UniProt P54790 1-616).
T2 construct: Orc3, S. cerevisiae, as the Orc3 chain of m1; Stood in the assay as a subunit of the whole ORC; written on its own for the contacts seen in the structure; source: purified as part of ORC, as described previously with minor modifications
T2 sequence: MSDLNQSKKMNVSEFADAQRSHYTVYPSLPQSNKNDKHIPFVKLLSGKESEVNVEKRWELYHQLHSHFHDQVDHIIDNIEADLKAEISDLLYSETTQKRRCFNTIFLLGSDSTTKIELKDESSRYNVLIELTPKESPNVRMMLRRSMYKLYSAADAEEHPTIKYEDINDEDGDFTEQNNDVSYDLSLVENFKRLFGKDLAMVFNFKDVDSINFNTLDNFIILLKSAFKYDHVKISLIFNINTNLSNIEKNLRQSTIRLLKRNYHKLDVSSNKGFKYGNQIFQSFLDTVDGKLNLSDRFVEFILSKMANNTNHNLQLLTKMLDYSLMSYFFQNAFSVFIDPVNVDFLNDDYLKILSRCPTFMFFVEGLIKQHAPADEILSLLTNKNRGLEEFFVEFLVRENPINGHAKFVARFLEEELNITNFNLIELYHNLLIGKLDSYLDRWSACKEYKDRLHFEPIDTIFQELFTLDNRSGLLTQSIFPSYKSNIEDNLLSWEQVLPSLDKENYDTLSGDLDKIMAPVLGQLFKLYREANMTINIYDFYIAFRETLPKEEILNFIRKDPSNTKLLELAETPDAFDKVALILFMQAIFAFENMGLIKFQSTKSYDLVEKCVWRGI

The target in test [4] is T3, origin recognition complex (ORC; Orc1-6), S. cerevisiae (S. cerevisiae, UniProt P54784 1-914; P32833 1-620; P54790 1-616; P54791 1-529; P50874 1-479; P38826 …).
T3 construct: Orc1, S. cerevisiae, subunit of ORC; BAH domain disordered in the map; Orc2, S. cerevisiae, subunit of ORC; WHD flexible and not visible in the map; Orc3, S. cerevisiae, subunit of ORC; Orc4, S. cerevisiae, subunit of ORC; Orc5, S. cerevisiae, subunit of ORC; Orc6, S. cerevisiae, subunit of ORC; TFIIB-A domain disordered in the map; also called yeast ORC; source: purified as described previously, …
T3 sequence (P32833 whole entry, chain 2 of 2, the tested form may be a part): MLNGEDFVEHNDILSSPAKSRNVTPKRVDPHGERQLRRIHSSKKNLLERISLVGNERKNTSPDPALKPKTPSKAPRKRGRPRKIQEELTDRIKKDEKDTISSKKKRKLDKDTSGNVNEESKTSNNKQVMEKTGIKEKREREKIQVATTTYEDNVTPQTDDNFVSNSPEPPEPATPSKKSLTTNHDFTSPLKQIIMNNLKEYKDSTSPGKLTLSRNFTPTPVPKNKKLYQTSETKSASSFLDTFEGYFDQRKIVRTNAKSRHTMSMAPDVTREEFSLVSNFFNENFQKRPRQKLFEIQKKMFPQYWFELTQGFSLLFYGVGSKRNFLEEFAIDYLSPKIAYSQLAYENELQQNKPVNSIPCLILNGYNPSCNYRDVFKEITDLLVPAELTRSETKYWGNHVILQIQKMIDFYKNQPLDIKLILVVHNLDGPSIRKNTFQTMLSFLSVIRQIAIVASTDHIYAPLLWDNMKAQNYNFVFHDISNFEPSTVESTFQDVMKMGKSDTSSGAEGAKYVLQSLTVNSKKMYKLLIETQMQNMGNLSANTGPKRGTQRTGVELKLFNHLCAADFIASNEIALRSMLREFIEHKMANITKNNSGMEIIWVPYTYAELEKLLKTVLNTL
T3 sequence (P38826 whole entry, chain 6 of 2, the tested form may be a part): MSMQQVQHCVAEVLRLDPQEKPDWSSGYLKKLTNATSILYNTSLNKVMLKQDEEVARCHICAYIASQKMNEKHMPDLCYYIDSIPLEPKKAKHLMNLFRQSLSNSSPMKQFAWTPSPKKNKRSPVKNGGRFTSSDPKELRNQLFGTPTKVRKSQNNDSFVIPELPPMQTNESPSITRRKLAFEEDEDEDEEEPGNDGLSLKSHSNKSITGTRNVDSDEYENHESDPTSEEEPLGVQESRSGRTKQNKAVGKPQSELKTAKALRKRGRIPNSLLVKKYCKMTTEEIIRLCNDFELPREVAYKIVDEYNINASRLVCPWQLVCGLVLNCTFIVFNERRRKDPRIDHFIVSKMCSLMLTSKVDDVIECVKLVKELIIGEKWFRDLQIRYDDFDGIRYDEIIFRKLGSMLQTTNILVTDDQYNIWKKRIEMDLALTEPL

For the molecule B1, the binding result in test [1] is “binds”.

B2: Orc5, subunit of S. cerevisiae ORC (natural protein)
chain: MNVTTPEVAFREYQTNCLASYISADPDITPSNLILQGYSGTGKTYTLKKYFNANPNLHAVWLEPVELVSWKPLLQAIARTVQYKLKTLYPNIPTTDYDPLQVEEPFLLVKTLHNIFVQYESLQEKTCLFLILDGFDSLQDLDAALFNKYIKLNELLPKDSKINIKFIYTMLETSFLQRYSTHCIPTVMFPRYNVDEVSTILVMSRCGELMEDSCLRKRIIEEQITDCTDDQFQNVAANFIHLIVQAFHSYTGNDIFALNDLIDFKWPKYVSRITKENIFEPLALYKSAIKLFLSTDDNLSENGQGESAITTNRDDLENSQTYDLSIISKYLLIASYICSYLEPRYDASIFSRKTRIIQGRAAYGRRKKKEVNPRYLQPSLFAIERLLAIFQAIFPIQGKAESGSLSALREESLMKANIEVFQNLSELHTLKLIATTMNKNIDYLSPKVRWKVNVPWEIIKEISESVHFNISDYFSDIHE
notes: Orc5, S. cerevisiae, as the Orc5 chain of m1; Stood in the assay as a subunit of the whole ORC; written on its own for the contacts seen in the structure; source: purified as part of ORC, as described previously with minor modifications
Consider B2, for which the binding result in test [2] and in test [3] was “binds” each time.

B3: Cdc6 (replication initiator), S. cerevisiae, wild type (natural protein)
chain: MSAIPITPTKRIRRNLFDDAPATPPRPLKRKKLQFTDVTPESSPEKLQFGSQSIFLRTKALLQKSSELVNLNSSDGALPARTAEYEQVMNFLAKAISEHRSDSLYITGPPGTGKTAQLDMIIRQKFQSLPLSLSTPRSKDVLRHTNPNLQNLSWFELPDGRLESVAVTSINCISLGEPSSIFQKIFDSFQDLNGPTLQIKNMQHLQKFLEPYHKKTTFVVVLDEMDRLLHANTSETQSVRTILELFLLAKLPTVSFVLIGMANSLDMKDRFLSRLNLDRGLLPQTIVFQPYTAEQMYEIVIQKMSSLPTIIFQPMAIKFAAKKCAGNTGDLRKLFDVLRGSIEIYELEKRFLLSPTRGSLNSAQVPLTPTTSPVKKSYPEPQGKIGLNYIAKVFSKFVNNNSTRTRIAKLNIQQKLILCTIIQSLKLNSDATIDESFDHYIKAITKTDTLAPLQRNEFLEICTILETCGLVSIKKTKCKGKTKRFVDKIDVDLDMREFYDEMTKISILKPFLH
notes: Cdc6, S. cerevisiae; also called yeast Cdc6; source: purified as described previously, with minor modifications (lysis buffer with 500 mM potassium phosphate)
Regarding B3, the binding result in test [1] and in test [4] was “binds” throughout.
